Publication PMC7105897

Key:
[1] = molecular target: N2 NA of the seasonal influenza virus strain A/Hong Kong/4801/2014 (H3N2) (influenza A virus A/Hong Kong/4801/2014 (H3N2))
[2] = molecular target: N2 NA of the 1957 H2N2 pandemic isolate A/Japan/305/1957 (influenza A virus A/Japan/305/1957 (H2N2)); test: crystal structure
[3] = molecular target: N9 NA from the H7N9 epidemic isolate A/Hunan/02650/2016 (influenza A virus A/Hunan/02650/2016 (H7N9)); test: crystal structure

## antigen-binding fragment (Fab) of 1G01
[1]
  IC50 of inhibition of NA activity of H3N2 A/Hong Kong/4801/2014 in ELLA (Fab): 7.62 nM

## N2 NA of the 1957 H2N2 pandemic isolate A/Japan/305/1957 (enzyme)
[2]
  stoichiometry N: 4

## N9 NA from the H7N9 epidemic isolate A/Hunan/02650/2016 (enzyme)
[3]
  stoichiometry N: 4
